In IntAct's records for PubMed 17666432:

B1: Transforming acid coiled-coil-containing protein 1 (Caenorhabditis elegans), G5ECG0 (parent)
chain: MSLNTTFTKEDGTEVVIPFNGSQNGHPENEEPEVEEAAEPSSSVETLCGATRGDIIVMKHTTKALTELIERLLHSDEFEVRRCSNGQIISQGRCNGTTPGNGIGGGGASSEELEKALKDRDAARAEADKLHANYATLFASFNTVREAANDIRGEYEDARDKLKLAAAEVDEWQAKFLAVKDNANSELERASVEYDDLLRSHDENTKGLRLRVKRQEIELSSKNDEIKVLTNRVSELSQICDQLLNDVDVSDGMSVISTDA
partner: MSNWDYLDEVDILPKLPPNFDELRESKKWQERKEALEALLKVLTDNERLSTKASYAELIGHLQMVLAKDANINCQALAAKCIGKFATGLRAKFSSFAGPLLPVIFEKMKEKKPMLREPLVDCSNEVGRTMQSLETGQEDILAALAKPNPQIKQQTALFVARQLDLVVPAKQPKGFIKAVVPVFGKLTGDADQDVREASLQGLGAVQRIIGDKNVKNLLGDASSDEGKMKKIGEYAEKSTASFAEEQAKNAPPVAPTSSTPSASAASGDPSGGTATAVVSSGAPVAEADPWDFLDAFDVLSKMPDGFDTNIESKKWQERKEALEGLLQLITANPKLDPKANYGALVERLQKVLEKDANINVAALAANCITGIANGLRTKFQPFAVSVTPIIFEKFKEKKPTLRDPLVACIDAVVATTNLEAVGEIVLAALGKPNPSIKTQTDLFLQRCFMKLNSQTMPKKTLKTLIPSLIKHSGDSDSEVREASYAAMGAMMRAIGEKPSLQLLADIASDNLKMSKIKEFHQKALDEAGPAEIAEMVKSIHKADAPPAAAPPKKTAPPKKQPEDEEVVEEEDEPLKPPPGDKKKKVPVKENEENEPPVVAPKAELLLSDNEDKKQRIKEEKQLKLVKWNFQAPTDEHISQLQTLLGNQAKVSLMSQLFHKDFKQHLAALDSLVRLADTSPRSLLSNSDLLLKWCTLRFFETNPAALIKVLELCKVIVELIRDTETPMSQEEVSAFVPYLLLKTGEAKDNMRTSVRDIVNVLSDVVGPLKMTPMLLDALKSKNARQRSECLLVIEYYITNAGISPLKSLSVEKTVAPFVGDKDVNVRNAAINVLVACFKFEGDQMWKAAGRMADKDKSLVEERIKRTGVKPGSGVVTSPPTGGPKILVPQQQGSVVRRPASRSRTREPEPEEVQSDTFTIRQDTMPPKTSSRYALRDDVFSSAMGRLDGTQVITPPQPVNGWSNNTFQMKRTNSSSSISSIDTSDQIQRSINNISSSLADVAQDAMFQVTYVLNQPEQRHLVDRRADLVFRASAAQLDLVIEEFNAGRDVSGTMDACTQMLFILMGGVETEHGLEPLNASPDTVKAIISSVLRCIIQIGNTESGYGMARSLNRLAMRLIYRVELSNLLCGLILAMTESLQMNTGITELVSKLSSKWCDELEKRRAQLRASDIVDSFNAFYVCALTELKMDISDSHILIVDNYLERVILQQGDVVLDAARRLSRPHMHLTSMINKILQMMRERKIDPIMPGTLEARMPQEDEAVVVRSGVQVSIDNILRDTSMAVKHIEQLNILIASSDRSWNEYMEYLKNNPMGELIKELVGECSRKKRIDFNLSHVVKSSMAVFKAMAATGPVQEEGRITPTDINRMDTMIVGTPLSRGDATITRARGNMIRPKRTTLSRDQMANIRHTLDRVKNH
B2: Zygote defective protein 9 (Caenorhabditis elegans), G5EEM5 (parent)
chain: B1 partner
partner: B1 chain

Variants of: B1
Settings: with zyg9_caeel zyg-9, G5EEM5
In the case of MSLNTTFTKEDGTEVVIPFNGSQNGHPENEEPEVEEAAEPSSSVETLCGATRGDIIVMKHTTKALTELIERLLHSDEFEVRRCSNGQIISQGRCNGTTPGNGIGGGGASSEELEKALKDRDAARAEADKLHANYATLFASFNTVREAANDIRGEYEDARDKLKLAAAEVDEWQAKFLAVKDNANSELERASVEYDDLLRSHDENTKGLRLRVKRQEIELSSKNDEIKVFTNRVSELSQICDQLLNDVDVSDGMSVISTDA [L229F], the “effect of a mutation on the interaction” value is reported as “decreasing interaction”.

Variants of: B2
Settings: with tacc1_caeel tac-1, G5ECG0
In the case of I862K, the “effect of a mutation on the interaction” value is reported as “decreasing interaction”.
For E1317K, the “effect of a mutation on the interaction” value was “decreasing interaction”.
